Patent US20020151498A1

What was measured:
[1] = molecular target: LSR alpha subunit (68 kDa) (rat) (UniProt Q9WU74); test: ultracentrifugation assay, in vitro translated labeled subunit with LDL, with against without oleate
[2] = molecular target: LSR beta subunit (56 kDa) (rat) (UniProt Q9WU74); test: as above
Chain of LSR beta subunit (56 kDa) (rat) (Q9WU74 other isoform, or with tags, fused parts or gaps limits assumed): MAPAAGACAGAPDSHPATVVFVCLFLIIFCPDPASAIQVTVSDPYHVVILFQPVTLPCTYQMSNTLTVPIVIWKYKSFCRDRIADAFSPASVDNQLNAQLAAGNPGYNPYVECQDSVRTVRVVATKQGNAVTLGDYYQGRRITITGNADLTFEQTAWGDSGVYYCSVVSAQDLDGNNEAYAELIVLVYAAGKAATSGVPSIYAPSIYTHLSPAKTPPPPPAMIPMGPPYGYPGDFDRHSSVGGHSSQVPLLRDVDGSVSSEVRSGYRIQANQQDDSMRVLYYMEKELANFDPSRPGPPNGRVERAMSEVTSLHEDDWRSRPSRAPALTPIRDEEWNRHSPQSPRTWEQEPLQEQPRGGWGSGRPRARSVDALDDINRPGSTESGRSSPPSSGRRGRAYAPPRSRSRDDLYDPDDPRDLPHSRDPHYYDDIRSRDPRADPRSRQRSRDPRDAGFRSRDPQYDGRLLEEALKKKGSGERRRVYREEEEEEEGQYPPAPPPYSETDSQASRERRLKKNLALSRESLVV

Chain of LSR alpha subunit (68 kDa) (rat) (Q9WU74 whole entry): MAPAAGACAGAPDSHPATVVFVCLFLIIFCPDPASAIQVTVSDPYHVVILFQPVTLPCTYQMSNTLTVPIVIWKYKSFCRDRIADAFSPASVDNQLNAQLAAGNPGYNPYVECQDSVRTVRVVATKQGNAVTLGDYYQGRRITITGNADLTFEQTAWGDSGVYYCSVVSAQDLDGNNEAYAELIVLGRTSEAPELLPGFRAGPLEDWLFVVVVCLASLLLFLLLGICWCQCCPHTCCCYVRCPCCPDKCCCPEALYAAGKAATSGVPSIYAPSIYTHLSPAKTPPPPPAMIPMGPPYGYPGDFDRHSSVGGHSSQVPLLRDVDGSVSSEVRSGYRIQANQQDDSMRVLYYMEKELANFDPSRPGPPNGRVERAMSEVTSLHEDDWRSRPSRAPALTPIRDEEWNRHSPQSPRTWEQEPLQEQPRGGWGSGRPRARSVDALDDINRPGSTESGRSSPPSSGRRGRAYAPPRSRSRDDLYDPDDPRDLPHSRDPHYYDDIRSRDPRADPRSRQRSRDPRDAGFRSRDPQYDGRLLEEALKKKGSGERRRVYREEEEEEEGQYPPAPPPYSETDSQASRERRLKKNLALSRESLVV

## LDL (low density lipoprotein) (ligand)
[1]
  fold enhancement of binding in the presence of oleate: 2 fold
[2]
  fold enhancement of binding in the presence of oleate: 5 fold
